This is an account of results in patent publication US20240166745A1 (Eli Lilly, published 2024).

For assay [1], the target named is T1, cell membrane-expressed cynomolgus LAG-3/PD-1 (cynomolgus).
T1 construct: whole, on cells; Two separate membrane proteins on the same cells, not a complex; also called Cyno CD4
Nature of the assay: flow cytometry, labeled antibody on anti-CD3 activated cynomolgus PBMC, CD4 T cells, percent of cells bound (mean +/- SEM, n=3). The protocol:
(§1) Cells were incubated with 10-12 point, 3-fold serial dilutions of the respective labeled antibody (Invitrogen #S20026, Invitrogen #C20029), starting at 30 ug/mL, in PBS+2% FCS for 30 minutes at 4° C. and containing the following: CD4 eBioscience #12-0047-42 or Biolegend #344634; CD8 eBioscience #25-0088-42; CD3 eBioscience 56-0038-82 for human cells and BD #557917 for cyno cells; CD33 eBioscience 45-0338-42 for human cells; Live/Dead eBioscience #65-0865-18. After washing thoroughly, cells were processed on a BD Fortessa or Fortessa X20 cytometer, and data were analyzed with Flowjo software (BD Biosciences). Percent of cells bound by the respective antibody is quantified and graphed with Prism (Graphpad, San Diego, CA).
In general terms: A flow cytometer gives signals particle by particle.

The target in assay [2] is PathHunter U2OS PD-1/LAG-3 dimerization cell line (human PD-1 aa 1-199-EA and human LAG-3 aa 1-477-PK) (human). Briefly: cell-based or functional assay.
PathHunter U2OS PD-1/LAG-3 dimerization cell line (human PD-1 aa 1-199-EA and human LAG-3 aa 1-477-PK) (human), sequence (Q15116 1-199, chain 1 of 2): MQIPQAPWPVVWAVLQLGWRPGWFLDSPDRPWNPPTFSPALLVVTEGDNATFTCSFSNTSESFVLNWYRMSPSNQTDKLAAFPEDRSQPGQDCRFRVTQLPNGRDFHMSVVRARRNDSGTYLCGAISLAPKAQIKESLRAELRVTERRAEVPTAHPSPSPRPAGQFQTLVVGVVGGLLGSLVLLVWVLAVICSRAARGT
PathHunter U2OS PD-1/LAG-3 dimerization cell line (human PD-1 aa 1-199-EA and human LAG-3 aa 1-477-PK) (human), sequence (P18627 1-477, chain 2 of 2, further chain): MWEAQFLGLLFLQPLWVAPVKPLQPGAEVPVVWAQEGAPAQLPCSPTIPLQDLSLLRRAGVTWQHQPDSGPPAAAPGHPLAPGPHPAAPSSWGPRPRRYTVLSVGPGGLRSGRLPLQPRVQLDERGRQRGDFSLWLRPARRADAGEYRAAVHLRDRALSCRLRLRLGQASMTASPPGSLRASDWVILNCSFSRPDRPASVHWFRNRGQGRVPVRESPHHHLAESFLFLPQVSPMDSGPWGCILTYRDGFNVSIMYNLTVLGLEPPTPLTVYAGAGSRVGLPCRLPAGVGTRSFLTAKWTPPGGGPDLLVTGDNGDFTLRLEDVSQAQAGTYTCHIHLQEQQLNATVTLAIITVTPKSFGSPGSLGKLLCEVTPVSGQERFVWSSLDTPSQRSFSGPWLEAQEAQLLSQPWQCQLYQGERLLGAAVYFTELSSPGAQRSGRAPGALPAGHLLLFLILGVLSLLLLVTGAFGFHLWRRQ
The next assay has as its target T2, Cynomolgus PD-1-ECD (cynomolgus, UniProt B0LAJ3 25-170).
T2 construct: commercial protein; also called cynomolgus PD-1-ECD (Sino Biologicals, Cat #90311-C08H); not shown: C-terminal polyhistidine tag of the vendor product (Sino Biological 90311-C08H)
Nature of the assay: SPR (Biacore T200), antibody captured on PrismA chip, ECD as analyte, 25° C. As for the experimental part:
(§2) A Biacore® T200 (Cytiva, Marlborough, MA) was used to measure the binding kinetics and affinities of the LAG-3 antibody to the LAG-3 soluble extracellular domain (ECD) and the bispecific antibody to soluble LAG-3-ECD and PD-1-ECD (human: Sino Biologicals, Cat #10377-H08H; cynomolgus: Sino Biologicals, Cat #90311-C08H) by surface plasmon resonance. Samples were diluted in HBS-EP+ (10 mM Hepes, 150 mM NaCl, 3 mM EDTA, 0.05% Tween-20, pH 7.6) (Teknova Cat #H8022) with 5 g/L of BSA (Jackson ImmunoResearch Cat #001-000-161) running buffer. PrismA Series S Sensor chip (Cat #29650263) is purchased from Cytiva.
(§3) Binding was evaluated using multi-cycle kinetics by an antibody capture method. Each cycle was performed at either 37° C. or 25° C. at a flow rate of 10 μL/min for antibody capture to the PrismA chip and 100 μL/min for analyte association (with 120 sec contact time) and dissociation (900 sec). Each cycle consisted of the following steps: injection of bispecific antibody at 1 μg/mL in HBS-EP+ targeting Rmax values of 125 RU (LAG-3 arm), 294 RU (PD-1 arm) and 63 RU (LAG-3 antibody) on flow cell, injection of analyte in HBS-EP+(concentration range of 62.5 nM to 0.25 nM by two-fold serial dilution for both human PD-1-ECD-His (SEQ ID NO: 40) and human LAG-3-His (SEQ ID NO: 42) followed by 900-second dissociation phase, and regeneration using 10 μL of 10 mM glycine hydrochloride, pH 1.5 over a 60-second contact time utilizing a 10 μL/min flow rate. All analyte concentrations were determined utilizing monomeric molecular weight (MW) values. Association rates (kₒₙ) and dissociation rates (koff) for LAG-3-ECD and PD-1-ECD were evaluated using double referencing by flow-cell one reference subtraction in addition to 0 nM blank subtraction and fit to “1:1 (Langmuir) binding” model in the BIAevaluation software version 4.1. The dissociation constant (KD) was calculated from the binding kinetics according to the relationship KD=Koff/Kₒₙ. Stoichiometry=[RUₘₐₓ/RUcaptured]/[MWanalyte/MWantibody] where MWAntibodyA is 150 kDa. Values are reported as mean±standard deviation.
Background: Surface plasmon resonance follows binding to a sensor surface in real time, without labels.

For assay [3], the target named is T3, cell membrane-expressed human LAG-3/PD-1 (human, UniProt P18627 23-525; Q15116 25-288).
T3 construct: also called Human CD4
T3 sequence (Q15116 25-288 limits assumed, one chain of several): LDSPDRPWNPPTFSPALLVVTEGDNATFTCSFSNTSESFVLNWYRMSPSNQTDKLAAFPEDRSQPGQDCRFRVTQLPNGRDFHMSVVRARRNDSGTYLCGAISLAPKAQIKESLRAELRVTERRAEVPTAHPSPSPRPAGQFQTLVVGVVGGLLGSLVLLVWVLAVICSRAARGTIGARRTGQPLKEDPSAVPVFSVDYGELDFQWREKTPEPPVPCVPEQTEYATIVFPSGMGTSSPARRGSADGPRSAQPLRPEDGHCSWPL
Nature of the assay: flow cytometry, labeled antibody on anti-CD3 activated human PBMC, CD8 T cells, percent of cells bound (mean +/- SEM, n=3). The protocol:
as §1

Assay [4] has as its target T1, cell membrane-expressed cynomolgus …. Nature of the assay: flow cytometry, labeled antibody on anti-CD3 activated cynomolgus PBMC, CD8 T cells, percent of cells bound (mean +/- SEM, n=3). The protocol:
as §1

In the next assay the target is T4, Cynomolgus LAG-3-ECD (cynomolgus).
T4 construct: as printed it starts with the N-terminal leader (MWEAQ...) and ends with a His tag; also called Cynomolgus LAG-3 ECD-His
T4 chain: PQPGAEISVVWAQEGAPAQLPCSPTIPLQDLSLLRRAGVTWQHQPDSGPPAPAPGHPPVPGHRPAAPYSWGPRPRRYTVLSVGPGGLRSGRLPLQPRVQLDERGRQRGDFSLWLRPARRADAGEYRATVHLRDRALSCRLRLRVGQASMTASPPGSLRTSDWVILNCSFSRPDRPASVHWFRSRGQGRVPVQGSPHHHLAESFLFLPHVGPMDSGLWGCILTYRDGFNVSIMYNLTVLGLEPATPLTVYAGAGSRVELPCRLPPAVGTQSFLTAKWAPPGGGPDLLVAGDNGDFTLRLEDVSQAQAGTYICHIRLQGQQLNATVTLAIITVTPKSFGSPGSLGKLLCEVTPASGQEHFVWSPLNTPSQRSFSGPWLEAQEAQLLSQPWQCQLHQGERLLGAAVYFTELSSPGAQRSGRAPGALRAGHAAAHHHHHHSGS
Nature of the assay: SPR (Biacore T200), antibody captured on PrismA chip, ECD as analyte, 37° C. The protocol: as §2, §3

Substitutions are numbered along the chain they refer to.

T1 sequence (P79185 26-458): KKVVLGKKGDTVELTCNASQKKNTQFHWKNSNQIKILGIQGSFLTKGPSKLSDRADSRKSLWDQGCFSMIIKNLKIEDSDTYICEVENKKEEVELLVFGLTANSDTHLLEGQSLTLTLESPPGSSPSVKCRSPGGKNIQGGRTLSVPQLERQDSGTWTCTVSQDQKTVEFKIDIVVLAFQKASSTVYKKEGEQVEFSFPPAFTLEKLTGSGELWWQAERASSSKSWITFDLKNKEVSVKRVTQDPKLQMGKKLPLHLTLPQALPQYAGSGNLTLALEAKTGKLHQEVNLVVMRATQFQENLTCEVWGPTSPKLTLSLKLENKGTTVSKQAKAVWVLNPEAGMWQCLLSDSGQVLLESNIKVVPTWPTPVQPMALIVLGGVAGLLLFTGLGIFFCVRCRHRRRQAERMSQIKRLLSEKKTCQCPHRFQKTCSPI
T2 sequence (B0LAJ3 entry or part of it limits assumed): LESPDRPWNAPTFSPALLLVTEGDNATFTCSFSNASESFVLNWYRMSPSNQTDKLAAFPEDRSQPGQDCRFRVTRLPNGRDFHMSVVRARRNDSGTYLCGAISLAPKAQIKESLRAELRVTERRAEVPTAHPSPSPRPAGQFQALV

B1: Antibody A (bispecific antibody, human IgG1, kappa, lambda)
heavy 1: not shown
light 1: DIVMTQTPLSLPVTPGEPASISCRSSQSLLDSAEGSTYLDWFLRKPGDSPQLLIYTLSYRASGVPDRFSGSGSGTDFTLKISRVEAEDVGVYYCMQRVEFPYTFGQGTKVEIKRTVAAPSVFIFPPSKEQLKSGTASVVCLLNNFYPREAKVQWKVDNALQSGNSQESVTEQDSKDSTYSLSSTLTLSKADYEKHKVYACEVTHQGLSSPVTKSFNRGEC
heavy 2: QVQLVQSGAEVKKPGASVKVSCKVSGYSLSKYDMSWVRKAPGKGLEWMGIIYTSGYTDYAQEFQGRVTMTEDTSTDTAYMELSSLRSEDTAVYYCATGNPYYTNGFNSWGQGTLVTVSSASTKGPSVFPLAPSSKSTSGGTAALGCLVKDYFPEPVTVSWNSGALTSGVATGPAVLQSSGLYSLSSVVTVPSSSLGTQTYICNVNHKPSNTKVDKRVEPKSCDKTHTCPPCPAPELLGGPSVFLFPPKPKDTLMISRTPEVTCVVVDVSHEDPEVKFNWYVDGVEVHNAKTKPREEQYNSTYRVVSVLTVLHQDWLNGKEYKCKVSNKALPAPIEKTISKAKGQPREPQVYTLPPSREEMTDNQVSLTCLVKGFYPSDIAVEWESNGQPENNYKTTPPVLMSDGSFFLASKLTVDKSRWQQGNVFSCSVMHEALHNHYTQKSLSLSPGK
light 2: RIQMTQSPSSLSASVGDRVTITCQASQSPNNLLAWYQDKPGKAPKLLIYGASDLPSGVPSRFSGSGSGTDFTLTISSLQPEDFATYYCQNNYYVGPVSYAFGGGTKVEIKGQPKAAPSVTLFPPSSEELQANKATLVCYISDFYPGAVTVAWKADSSPVKAGVETTTPSKQSNNKYAAWSYLSLTPEQWKSHRSYSCQVTHEGSTVEKTVAPTEC
notes: IgG-like bispecific with one LAG-3 arm and one PD-1 arm; also called human LAG-3/human PD-1 dual agonist bispecific antibody
Regarding B1, the EC50 turned out to be 0.0293 µg/mL in assay [1], 0.0068 µg/mL in assay [3] and 0.0167 µg/mL in assay [4]. For the same molecule, the “EC50 for induction of PD-1 and LAG-3 dimerization (enzyme fragment complementation, luminescence)” value in assay [2] was 2.97 nM. The values for the Kd with Cynomolgus PD-1-ECD and in the assay with Cynomolgus LAG-3-ECD were 1.6 nM and 0.51 nM, respectively. Moreover, the koff in the assay with Cynomolgus PD-1-ECD was found to be 0.002 s⁻¹; with Cynomolgus LAG-3-ECD, 0.01 s⁻¹. Also, the on-rate constant (kon) stood at 1.3e+06 M⁻¹ s⁻¹ in the assay with Cynomolgus PD-1-ECD and 2e+07 M⁻¹ s⁻¹ with Cynomolgus LAG-3-ECD.

B2: Antibody B (bispecific antibody, human IgG1, kappa, lambda)
heavy 1: not shown
light 1: B1 light 1
heavy 2: B1 heavy 2 with K324A
light 2: B1 light 2
notes: also called human LAG-3/human PD-1 dual agonist bispecific antibody
For the molecule B2, the EC50 was 0.0337 µg/mL in assay [1], 0.0077 µg/mL in assay [3] and 0.018 µg/mL in assay [4]. The “EC50 for induction of PD-1 and LAG-3 dimerization (enzyme fragment complementation, luminescence)” value in assay [2] was found to be 2.47 nM. Further, the Kd in the assay with Cynomolgus PD-1-ECD came out at 1.1 nM; in the assay with Cynomolgus LAG-3-ECD, 0.48 nM. For the same molecule, the koff in the assay with Cynomolgus PD-1-ECD amounted to 0.0018 s⁻¹; in the assay with Cynomolgus LAG-3-ECD, 0.0098 s⁻¹. For the same molecule, the results for the kon with Cynomolgus PD-1-ECD and with Cynomolgus LAG-3-ECD were 1.7e+06 M⁻¹ s⁻¹ and 2e+07 M⁻¹ s⁻¹, respectively.

The term EC50 denotes the concentration at which the effect is half-maximal. A lower EC50 goes with a more potent agent. Usually Kd stands for the constant that tells how readily two partners part at equilibrium. High values mean weaker binding, low ones tighter binding. In general, koff refers to the first-order rate constant of dissociation. Low readings indicate slow dissociation, high ones fast dissociation. One may read the kon as a measure of how fast the partners come together.
